Source: publication PMC8455438 (Molecular cell, 2021)
Where a chain is given by its changes, count along the chain named. Names and notes keep the numbering of the source. Read-outs that look alike come from different tables or passages of the source.

T1: Recombinant IDH2 (R140Q) protein (ACTIVE MOTIF) (human, UniProt P48735 40-452, R140Q)
T1 sequence (looked up): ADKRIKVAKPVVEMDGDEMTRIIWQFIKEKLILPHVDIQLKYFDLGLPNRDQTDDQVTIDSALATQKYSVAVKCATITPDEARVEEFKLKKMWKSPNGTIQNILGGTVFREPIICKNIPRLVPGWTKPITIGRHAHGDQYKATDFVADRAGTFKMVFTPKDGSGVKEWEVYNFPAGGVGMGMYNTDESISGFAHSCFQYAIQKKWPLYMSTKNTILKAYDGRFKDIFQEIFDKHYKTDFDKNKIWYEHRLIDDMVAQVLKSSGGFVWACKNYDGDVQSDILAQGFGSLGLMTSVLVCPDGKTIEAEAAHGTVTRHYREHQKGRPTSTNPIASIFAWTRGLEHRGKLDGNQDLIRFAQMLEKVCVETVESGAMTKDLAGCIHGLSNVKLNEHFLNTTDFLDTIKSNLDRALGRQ

B1: 6xHis-IDH2 R140Q-FLAG, K413 not acetylated (pre-treated with cobB protein deacetylase, or deacetylated by rSIRT3) (enzyme, human, UniProt P48735 40-452, looked up)
chain: T1 sequence (looked up)
B2: 6xHis-IDH2 R140Q-FLAG, K413-acetylated (by rACAT1 after cobB pre-treatment, or with intrinsic lysine acetylation obtained in bacteria) (enzyme, human, UniProt P48735 40-452, looked up)
chain: T1 sequence (looked up)
modifications: acetyl-lysine at K413 (rACAT1 acetylates mutant IDH2 at multiple lysine sites; intrinsic lysine acetylation obtained in bacteria)
B3: recombinant ACAT1 (mitochondrial acetyl-coA acetyltransferase), wild type (enzyme, UniProt P24752 34-427, looked up)
chain: VSKPTLKEVVIVSATRTPIGSFLGSLSLLPATKLGSIAIQGAIEKAGIPKEEVKEAYMGNVLQGGEGQAPTRQAVLGAGLPISTPCTTINKVCASGMKAIMMASQSLMCGHQDVMVAGGMESMSNVPYVMNRGSTPYGGVKLEDLIVKDGLTDVYNKIHMGSCAENTAKKLNIARNEQDAYAINSYTRSKAAWEAGKFGNEVIPVTVTVKGQPDVVVKEDEEYKRVDFSKVPKLKTVFQKENGTVTAANASTLNDGAAALVLMTADAAKRLNVTPLARIVAFADAAVEPIDFPIAPVYAASMVLKDVGLKKEDIAMWEVNEAFSLVVLANIKMLEIDPQKVNINGGAVSLGHPIGMSGARIVGHLTHALKQGEYGLASICNGGGGASAMLIQKL
B4: recombinant ACAT1 Y407F (phosphor-deficient mutant) (enzyme, UniProt P24752 34-427, looked up)
chain: B3 chain with Y374F
B5: recombinant ACAT1 treated with rFLT3 (Y407-phosphorylated) (enzyme, UniProt P24752 34-427, looked up)
chain: B3 chain
modifications: phosphotyrosine at Y407 (by rFLT3)
B6: 6xHis-IDH2 R140Q/K413R-FLAG (acetyl-deficient) (enzyme, human, UniProt P48735 40-452, looked up)
chain: T1 sequence (looked up) with K374R
B7: 6xHis-IDH2 R140Q/K413Q-FLAG (acetyl-mimetic) (enzyme, human, UniProt P48735 40-452, looked up)
chain: T1 sequence (looked up) with K374Q

Legend:
[1] = target: the molecule itself; test: native gel or EMSA
[2] = target: the molecule itself; test: native gel or EMSA; remark: listed apart in the source
[3] = target: T1, Recombinant IDH2 (R140Q) protein …; test: co-IP

Binder	stoichiometry N [1]	binding result [3]	also measured
B1	2	–	–
B2	–	–	stoichiometry N [2]: 2
B3	–	binds	–
B4	–	binds	–
B5	–	binds	–
B6	2	–	–
B7	2	–	–
